B1: MMP1 (parent)
chain: FHGTRQYKFDPKTKRILTLQKANS

Variants of: B1
Assay: protein stability index of a GFP-peptide fusion (GPS, HEK-293T) (PSI 1-6); higher = more stable
Settings: c terminus: a fixed tail appended
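Further: lentivirally expressed fusions sorted by FACS into six bins by GFP to DsRed ratio, PSI derived from sequencing read proportions per bin multiplied by bin number.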

Point of comparison: FHGTRQYKFDPKTKRILTLEKANS, protein stability index 2.03. Against it:
- FHGTRQYKFDPKTKRILTLQIANS — lower, 1.78
- FHGTRQYKFDPKTKRILTLQMANS — lower, 1.54
- FHGTRQYKFDPKTKRILTLQRANS — lower, 1.82
- FHGTRQYKFDPKTKRILTLQDANS — lower, 1.88
- FHGTRQYKFDPKTKRILTLQCANS — higher, 2.53
- FHGTRQYKFDPKTKRILTLQFANS — higher, 2.14
- FHGTRQYKFDPKTKRILTLQTANS — lower, 1.54
- FHGTRQYKFDPKTKRILTLQEANS — higher, 2.86
- FHGTRQYKFDPKTKRILTLQAANS — lower, 2.02
- FHGTRQYKFDPKTKRILTLQPANS — higher, 2.04
- FHGTRQYKFDPKTKRILTLQGANS — lower, 1.11
- FHGTRQYKFDPKTKRILTLQSANS — lower, 1.81
- FHGTRQYKFDPKTKRILTLQLANS — lower, 1.32
- FHGTRQYKFDPKTKRILTLQYANS — higher, 2.43
- FHGTRQYKFDPKTKRILTLQHANS — higher, 2.33
- FHGTRQYKFDPKTKRILTLQVANS — lower, 1.6
- FHGTRQYKFDPKTKRILTLQNANS — higher, 2.27
- FHGTRQYKFDPKTKRILTLQQANS — lower, 1.9
- FHGTRQYKFDPVTKRILTLQKANS — lower, 1.55
- FHGTRQYKFDPRTKRILTLQKANS — higher, 2.44
- FHGTRQYKFDPMTKRILTLQKANS — lower, 1.7
- FHGTRQYKFDPWTKRILTLQKANS — higher, 3.25
- FHGTRQYKFDPYTKRILTLQKANS — higher, 3.08
- FHGTRQYKFDPTTKRILTLQKANS — lower, 1.73
- FHGTRQYKFDPSTKRILTLQKANS — lower, 1.57
- FHGTRQYKFDPLTKRILTLQKANS — lower, 1.91
- FHGTRQYKFDPNTKRILTLQKANS — higher, 2.12
- FHGTRQYKFDPQTKRILTLQKANS — higher, 2.04
- FHGTRQYKFDPPTKRILTLQKANS — higher, 2.26
- FHGTRQYKFDPKTKRILKLQKANS — lower, 1.34
- FHGTRQYKFDPKTKRILPLQKANS — higher, 2.18
- FHGTRQYKFDPKTKRILMLQKANS — lower, 1.74
- FHGTRQYKFDPKTKRILVLQKANS — lower, 1.04
- FHGTRQYKFDPKTKRILRLQKANS — lower, 1.68
- FHGTRQYKFDPKTKRILFLQKANS — lower, 1.67
- FHGTRQYKFDPKTKRILLLQKANS — lower, 1.58
- FHGTRQYKFDPKTKRILGLQKANS — lower, 1.86
- FHGTRQYKFDPKTKRILELQKANS — higher, 2.07
- FHGTRQYKFDPKTKRILWLQKANS — higher, 2.4
- FHGTRQYKFDPKTKRILILQKANS — lower, 1.61
- FHGTRQYKFDPKTKRILCLQKANS — lower, 1.55
- FHGTRQYKFDPKTKRILSLQKANS — lower, 1.9
- FHGTRQYKFDPKTKRILDLQKANS — higher, 3.38
- FHGTRQYKFDPKTKRILHLQKANS — lower, 1.39
- FHGTRQYKFDPKTKRILQLQKANS — lower, 1.73
- FHGTRQYKFDPKTKRILALQKANS — higher, 2.05
- FHGTRQYKFDPKTKRILNLQKANS — higher, 2.15
- FHGTRQYKFDPKTKRILYLQKANS — lower, 1.51
- FHGTRQYKFDPKGKRILTLQKANS — lower, 1.62
- FHGTRQYKFDPKEKRILTLQKANS — lower, 1.69
- FHGTRQYKFDPKQKRILTLQKANS — higher, 2.37
- FHGTRQYKFDPKVKRILTLQKANS — lower, 1.6
- FHGTRQYKFDPKHKRILTLQKANS — higher, 2.21
- FHGTRQYKFDPKLKRILTLQKANS — higher, 2.09
- FHGTRQYKFDPKPKRILTLQKANS — lower, 1.8
- FHGTRQYKFDPKAKRILTLQKANS — higher, 2.3
- FHGTRQYKFDPKFKRILTLQKANS — lower, 1.68
- FHGTRQYKFDPKSKRILTLQKANS — lower, 1.99
- FHGTRQYKFDPKCKRILTLQKANS — higher, 2.66
- FHGTRQYKFDPKDKRILTLQKANS — higher, 2.33
- FHGTRQYKFDPKNKRILTLQKANS — lower, 1.96
- FHGTRQYKFDPKKKRILTLQKANS — lower, 2
- FHGTRQYKFDPKRKRILTLQKANS — lower, 1.85
- FHGTRQYKFDPKYKRILTLQKANS — lower, 1.65
- FHGTRQYKFDPKIKRILTLQKANS — lower, 1.8
- FHGTRQYKFDPKWKRILTLQKANS — higher, 2.07
- FHGTRQYKFDPKMKRILTLQKANS — lower, 1.67
- FHGTRQYKFDPKTKRILTLQKHNS — higher, 2.49
- FHGTRQYKFDPKTKRILTLQKFNS — lower, 1.77
- FHGTRQYKFDPKTKRILTLQKCNS — higher, 2.07
- FHGTRQYKFDPKTKRILTLQKINS — lower, 1.38
- FHGTRQYKFDPKTKRILTLQKGNS — lower, 1.73
- FHGTRQYKFDPKTKRILTLQKENS — higher, 2.92
- FHGTRQYKFDPKTKRILTLQKDNS — lower, 1.48
- FHGTRQYKFDPKTKRILTVQKANS — the same, 2.03
- FHGTRQYKFDPKTKRILTHQKANS — lower, 1.59
- FHGTRQYKFDPKTKRILTEQKANS — lower, 1.73
- FHGTRQYKFDPKTKRILTSQKANS — the same, 2.03
- FHGTRQYKFDPKTKRILTFQKANS — lower, 1.68
- FHGTRQYKFDPKTKRILTQQKANS — lower, 1.87
- FHGTRQYKFDPKTKRILTIQKANS — higher, 2.05
- FHGTRQYKFDPKTKRILTAQKANS — lower, 1.54
- FHGTRQYKFDPKTKRILTPQKANS — lower, 1.87
- FHGTRQYKFDPKTKRILTRQKANS — lower, 1.44
- FHGTRQYKFDPKTKRILTYQKANS — higher, 2.34
- FHGTRQYKFDPKTKRILTGQKANS — higher, 2.94
- FHGTRQYKFDPKTKRILTKQKANS — higher, 2.05
- FHGTRQYKFDPKTKRILTCQKANS — lower, 1.63
- FHGTRQYKFDPKTKRILTDQKANS — higher, 2.49
- FHGTRQYKFDPKTKRILTTQKANS — higher, 2.2
- FHGTRQYKFDPKTKRILTWQKANS — higher, 2.61
- FHGTRQYKFDPKTKRILTNQKANS — lower, 1.94
- FHGTRQYKFDPKTKRILTMQKANS — lower, 1.91
- FHGTRQYKFDPKTKRWLTLQKANS — lower, 1.95
- FHGTRQYKFDPKTKRSLTLQKANS — lower, 1.7
- FHGTRQYKFDPKTKRTLTLQKANS — lower, 1.91
- FHGTRQYKFDPKTKRHLTLQKANS — lower, 1.42
- FHGTRQYKFDPKTKRDLTLQKANS — higher, 2.5
- FHGTRQYKFDPKTKRPLTLQKANS — lower, 1.93
- FHGTRQYKFDPKTKRQLTLQKANS — lower, 1.94
- FHGTRQYKFDPKTKRYLTLQKANS — lower, 1.35
- FHGTRQYKFDPKTKRALTLQKANS — higher, 2.8
- FHGTRQYKFDPKTKRELTLQKANS — lower, 1.93
- FHGTRQYKFDPKTKRGLTLQKANS — lower, 1.64
- FHGTRQYKFDPKTKRNLTLQKANS — lower, 1.84
- FHGTRQYKFDPKTKRKLTLQKANS — lower, 1.67
- FHGTRQYKFDPKTKRMLTLQKANS — lower, 1.64
- FHGTRQYKFDPKTKRLLTLQKANS — higher, 2.21
- FHGTRQYKFDPKTKRRLTLQKANS — lower, 1.36
- FHGTRQYKFDPKTKRCLTLQKANS — lower, 1.68
- FHGTRQYKFDPKTKRFLTLQKANS — lower, 1.64
- FHGTRQYKFDPKTKRVLTLQKANS — higher, 2.25
- FHGTRQYKFDPKTKRILTLAKANS — higher, 2.46
- FHGTRQYKFDPKTKRILTLFKANS — lower, 1.91
- FHGTRQYKFDPKTKRILTLYKANS — lower, 1.66
- FHGTRQYKFDPKTKRILTLKKANS — lower, 1.84
- FHGTRQYKFDPKTKRILTLNKANS — lower, 1.73
- FHGTRQYKFDPKTKRILTLPKANS — higher, 2.06
- FHGTRQYKFDPKTKRILTLRKANS — higher, 2.37
- FHGTRQYKFDPKTKRILTLMKANS — lower, 1.45
- FHGTRQYKFDPKTKRILTLDKANS — lower, 1.88
- FHGTRQYKFDPKTKRILTLGKANS — lower, 2.01
- FHGTRQYKFDPKTKRILTLTKANS — lower, 1.8
- FHGTRQYKFDPKTKRILTLCKANS — higher, 2.16
- FHGTRQYKFDPKTKRILTLSKANS — higher, 2.28
- FHGTRQYKFDPKTKRILTLIKANS — lower, 1.78
- FHGTRQYKFDPKTKRILTLWKANS — higher, 2.77
- FHGTRQYKFDPKTKRILTLVKANS — lower, 1.75
- FHGTRQYKFDPKTKRILTLLKANS — higher, 2.12
- FHGTRQYKFDPKTKRILTLHKANS — higher, 2.09
- FHGTRQYKFDPKTPRILTLQKANS — higher, 2.1
- FHGTRQYKFDPKTFRILTLQKANS — lower, 1.98
- FHGTRQYKFDPKTWRILTLQKANS — lower, 1.95
- FHGTRQYKFDPKTLRILTLQKANS — lower, 1.99
- FHGTRQYKFDPKTQRILTLQKANS — lower, 1.82
- FHGTRQYKFDPKTMRILTLQKANS — higher, 2.16
- FHGTRQYKFDPKTERILTLQKANS — lower, 1.85
- FHGTRQYKFDPKTSRILTLQKANS — lower, 1.69
- FHGTRQYKFDPKTDRILTLQKANS — higher, 2.19
- FHGTRQYKFDPKTVRILTLQKANS — higher, 2.53
- FHGTRQYKFDPKTARILTLQKANS — higher, 2.68
- FHGTRQYKFDPKTIRILTLQKANS — lower, 1.92
- FHGTRQYKFDPKTYRILTLQKANS — lower, 1.36
- FHGTRQYKFDPKTHRILTLQKANS — lower, 1.54
- FHGTRQYKFDPKTCRILTLQKANS — higher, 2.18
- FHGTRQYKFDPKTRRILTLQKANS — lower, 1.85
- FHGTRQYKFDPKTGRILTLQKANS — lower, 1.54
- FHGTRQYKFDPKTNRILTLQKANS — higher, 2.14
- FHGTRQYKFDPKTTRILTLQKANS — lower, 1.61
- FHGTRQYKFDPKTKRIQTLQKANS — higher, 2.19
- FHGTRQYKFDPKTKRIYTLQKANS — lower, 1.95
- FHGTRQYKFDPKTKRIVTLQKANS — lower, 1.73
- FHGTRQYKFDPKTKRITTLQKANS — higher, 2.2
- FHGTRQYKFDPKTKRISTLQKANS — lower, 1.8
- FHGTRQYKFDPKTKRICTLQKANS — lower, 2.02
- FHGTRQYKFDPKTKRIKTLQKANS — higher, 2.1
- FHGTRQYKFDPKTKRIETLQKANS — lower, 1.59
- FHGTRQYKFDPKTKRIDTLQKANS — lower, 1.91
- FHGTRQYKFDPKTKRIATLQKANS — lower, 1.92
- FHGTRQYKFDPKTKRIFTLQKANS — lower, 1.56
- FHGTRQYKFDPKTKRIMTLQKANS — lower, 1.53
- FHGTRQYKFDPKTKRIWTLQKANS — lower, 1.88
- FHGTRQYKFDPKTKRIRTLQKANS — higher, 2.56
- FHGTRQYKFDPKTKRIHTLQKANS — higher, 2.17
- FHGTRQYKFDPKTKRIPTLQKANS — lower, 1.57
- FHGTRQYKFDPKTKRIGTLQKANS — higher, 2.38
- FHGTRQYKFDPKTKRIITLQKANS — lower, 1.78
- FHGTRQYKFDPKTKRINTLQKANS — lower, 1.6
- FHGTRQYKFDPKTKGILTLQKANS — lower, 1.31
- FHGTRQYKFDPKTKTILTLQKANS — lower, 1.83
- FHGTRQYKFDPKTKNILTLQKANS — lower, 1.73
- FHGTRQYKFDPKTKQILTLQKANS — higher, 2.16
- FHGTRQYKFDPKTKSILTLQKANS — lower, 1.91
- FHGTRQYKFDPKTKPILTLQKANS — higher, 2.29
- FHGTRQYKFDPKTKMILTLQKANS — lower, 1.47
- FHGTRQYKFDPKTKEILTLQKANS — lower, 1.83
- FHGTRQYKFDPKTKFILTLQKANS — lower, 1.3
- FHGTRQYKFDPKTKYILTLQKANS — lower, 1.57
- FHGTRQYKFDPKTKLILTLQKANS — higher, 2.2
- FHGTRQYKFDPKTKCILTLQKANS — lower, 1.28
- FHGTRQYKFDPKTKKILTLQKANS — lower, 1.66
- FHGTRQYKFDPKTKIILTLQKANS — higher, 2.05
- FHGTRQYKFDPKTKWILTLQKANS — lower, 1.69
- FHGTRQYKFDPKTKVILTLQKANS — lower, 1.77
- FHGTRQYKFDPKTKHILTLQKANS — lower, 1.86
- FHGTRQYKFDPKTKDILTLQKANS — lower, 1.86
- FHGTRQYKFDPKTKAILTLQKANS — higher, 2.51

— the supplement of paper PMC10567573
